This data set is described as follows: self-splicing fitness, log relative to wild type (ln ratio); higher = more splicing; Tetrahymena group I intron in knt gene, E. coli kanamycin selection, DiMSum; sequences stand for … in CUCUCU…GGAGGGAAAAGUUAUCAGGCAUGCACCUGGUAGCUAGUCUUUAAACCAAUAGAUUGCAUCGGUUUAAAAGGCAAGACCGUCAAAUUGCGGGAAAGGGGUCAACAGCCGUUCAGUACCAAGUCUCAGGGGAAACUUUGAGAUGGCCUUGCAAAGGGUAUGGUAAUAAGCUGACGGACAUGGUCCUAACCACGCAGCCAAGUCCUAAGUCAACAGAUCUUCUGUUGAUAUGGAUGCAGUUCACAGACUAAAUGUCGGUCGGGGAAGAUGUAUUCUUCUCAUAAGAUAUAGUCGGACCUCUCCUUAAUGGGAGCUAGCGGAUGAAGUGAUGCAACACUGGAGCCGCUGGGAACUAAUUUGUAUGCGAAAGUAUAUUGAUUAGUUUUGGAGUACUCGUGGUCG
An outline of the steps: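 Library with all eight P1ex-region intron nucleotides randomised, intron inside the knt kanamycin-resistance gene on pET-22b(+), in E. coli BL21(DE3). Cells grew overnight at 37°C or 30°C on LB agar with or without 25 μg/mL kanamycin (plus 100 μg/mL carbenicillin, 50 μM IPTG, 0.2% rhamnose), in six replicate transformations. Pooled colonies were amplicon-sequenced on Illumina HiSeq 2500. DiMSum fitness is the error-weighted combination of wild-type-normalised replicate fold changes, kanamycin versus none.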

± gives the uncertainty stated by the source.

With GGUCAGCAAUAUUACGCUAG, the “self-splicing fitness (ln)” value is -3.43 ± 0.26 (30 °C) and -2.91 ± 0.34 (37 °C).
As to AAGUAGCAAUAUUACGAGAA, the “self-splicing fitness (ln)” value runs as follows: (30 °C) -2.44 ± 0.22; (37 °C) -2.05 ± 0.44.
As to GGGAAGCAAUAUUACGACAC, the “self-splicing fitness (ln)” value runs as follows: (30 °C) -0.539 ± 0.25; (37 °C) 0.0269 ± 0.38.
Take UGCCAGCAAUAUUACGUUCG: the “self-splicing fitness (ln)” value (30 °C) was -0.361 ± 0.07 and the “self-splicing fitness (ln)” value (37 °C) amounted to 0.136 ± 0.089.
For AUAGAGCAAUAUUACGACGU, in that order: 0.0144 ± 0.077 and 0.556 ± 0.099.
For UAGAAGCAAUAUUACGGUUA, in that order: 0.144 ± 0.094 and -0.007 ± 0.086.
For GAGCAGCAAUAUUACGGUGG, in that order: -3.9 ± 0.2 and -2.31 ± 0.16.
For UUACAGCAAUAUUACGUUAC, the “self-splicing fitness (ln)” value (30 °C) was -3.56 ± 0.28 and the “self-splicing fitness (ln)” value (37 °C) is -3.03 ± 0.27.
With UGACAGCAAUAUUACGUGUG, the “self-splicing fitness (ln)” value runs as follows: (30 °C) -0.953 ± 0.06; (37 °C) -0.807 ± 0.069.
In the case of ACCAAGCAAUAUUACGGACA, the “self-splicing fitness (ln)” value reads like this: (30 °C) -0.841 ± 0.068; (37 °C) -0.38 ± 0.072.
In the case of UUACAGCAAUAUUACGUAGU, the “self-splicing fitness (ln)” value is -2.7 ± 0.15 (30 °C) and -3.5 ± 0.33 (37 °C).
Take CACCAGCAAUAUUACGCAUG: the “self-splicing fitness (ln)” value reads like this: (30 °C) -1.29 ± 0.062; (37 °C) -0.787 ± 0.07.
With AUGGAGCAAUAUUACGCCUG, the “self-splicing fitness (ln)” value reads like this: (30 °C) -2.34 ± 0.27; (37 °C) -2.3 ± 0.28.
As to GUGGAGCAAUAUUACGGAUC, the “self-splicing fitness (ln)” value (30 °C) was -1.1 ± 0.25 and the “self-splicing fitness (ln)” value (37 °C) was -0.583 ± 0.21.
As for AGUUAGCAAUAUUACGUCUU, the “self-splicing fitness (ln)” value was -0.214 ± 0.096 (30 °C) and 0.541 ± 0.13 (37 °C).
For UGCAAGCAAUAUUACGGUCU, the “self-splicing fitness (ln)” value reads like this: (30 °C) -0.647 ± 0.07; (37 °C) 0.283 ± 0.082.
Consider UAGCAGCAAUAUUACGUCCA, for which the “self-splicing fitness (ln)” value (30 °C) is -0.794 ± 0.11 and the “self-splicing fitness (ln)” value (37 °C) is -0.187 ± 0.11.
With GCAUAGCAAUAUUACGCGCU, where the note is “37 °C”, the “self-splicing fitness (ln)” value was -2.39 ± 0.31.
For the sequence AUUAAGCAAUAUUACGGCUU, the “self-splicing fitness (ln)” value is, setting by setting: (30 °C) -0.718 ± 0.088; (37 °C) 0.207 ± 0.12.
The matching figures for UGUCAGCAAUAUUACGAAAU: -2.21 ± 0.19 and -1.18 ± 0.19.
Turning to GCCAAGCAAUAUUACGAGCG, the “self-splicing fitness (ln)” value runs as follows: (30 °C) -2.34 ± 0.12; (37 °C) -1.08 ± 0.13.
Take ACACAGCAAUAUUACGUGAG: the “self-splicing fitness (ln)” value (30 °C) is -1.02 ± 0.05 and the “self-splicing fitness (ln)” value (37 °C) worked out at 0.121 ± 0.074.
For UGGGAGCAAUAUUACGGACA, in that order: -1.7 ± 0.14 and -0.535 ± 0.13.
As for AAUUAGCAAUAUUACGGACU, the “self-splicing fitness (ln)” value runs as follows: (30 °C) -0.43 ± 0.087; (37 °C) 0.51 ± 0.14.
Consider GAACAGCAAUAUUACGAUCU, for which the “self-splicing fitness (ln)” value was -1.33 ± 0.055 (30 °C) and -0.287 ± 0.078 (37 °C).
For ACUUAGCAAUAUUACGUCUC, the “self-splicing fitness (ln)” value (30 °C) is -2.31 ± 0.25 and the “self-splicing fitness (ln)” value (37 °C) was -3.34 ± 0.32.
Take GGGAAGCAAUAUUACGGUAC: the “self-splicing fitness (ln)” value by setting is: (30 °C) -1.47 ± 0.25; (37 °C) -1.08 ± 0.27.
The matching figures for CUAUAGCAAUAUUACGCUAU: -2.77 ± 0.15 and -1.72 ± 0.27.
Consider AUACAGCAAUAUUACGAGAG, for which the “self-splicing fitness (ln)” value (30 °C) is -3.39 ± 0.14 and the “self-splicing fitness (ln)” value (37 °C) was -2.1 ± 0.088.
Take CCUAAGCAAUAUUACGGUGA: the “self-splicing fitness (ln)” value is, setting by setting: (30 °C) -3.89 ± 0.25; (37 °C) -2.28 ± 0.16.
For ACGAAGCAAUAUUACGUCCC, the “self-splicing fitness (ln)” value runs as follows: (30 °C) -1.28 ± 0.13; (37 °C) -1.07 ± 0.16.
On to CCGGAGCAAUAUUACGAGGG, for which the “self-splicing fitness (ln)” value (30 °C) is -2.13 ± 0.27 and the “self-splicing fitness (ln)” value (37 °C) is -1.47 ± 0.29.
Turning to AGACAGCAAUAUUACGCUGC, the “self-splicing fitness (ln)” value by setting is: (30 °C) -3.72 ± 0.2; (37 °C) -2.64 ± 0.24.
Regarding AGUGAGCAAUAUUACGCGAU, the “self-splicing fitness (ln)” value is -3.96 ± 0.42 (30 °C) and -1.8 ± 0.24 (37 °C).
CGGUAGCAAUAUUACGCUUA: the “self-splicing fitness (ln)” value (37 °C) was -1.95 ± 0.2.
Regarding GCAAAGCAAUAUUACGUACG, the “self-splicing fitness (ln)” value is -1.13 ± 0.083 (30 °C) and -1.84 ± 0.13 (37 °C).
The matching figures for CUUUAGCAAUAUUACGGGAA: -2.28 ± 0.22 and -1.58 ± 0.3.
Consider UUAAAGCAAUAUUACGAUGU, for which the “self-splicing fitness (ln)” value reads like this: (30 °C) -1.91 ± 0.1; (37 °C) -0.671 ± 0.15.
As to CGAAAGCAAUAUUACGUCGC, the “self-splicing fitness (ln)” value runs as follows: (30 °C) -3.03 ± 0.21; (37 °C) -2.59 ± 0.23.
For CGGGAGCAAUAUUACGGUCU, the “self-splicing fitness (ln)” value is -2.67 ± 0.29 (30 °C) and -0.781 ± 0.45 (37 °C).
On to AGCAAGCAAUAUUACGGAUA, for which the “self-splicing fitness (ln)” value (30 °C) was -3.3 ± 0.28 and the “self-splicing fitness (ln)” value (37 °C) was -1.77 ± 0.19.
On to GGAAAGCAAUAUUACGUGGA, for which the “self-splicing fitness (ln)” value (30 °C) is -3.49 ± 0.28 and the “self-splicing fitness (ln)” value (37 °C) is -1.96 ± 0.23.
In the case of GGCCAGCAAUAUUACGAGAC, the “self-splicing fitness (ln)” value is -3.29 ± 0.25 (30 °C) and -2.77 ± 0.28 (37 °C).
As to UACGAGCAAUAUUACGCACA, the “self-splicing fitness (ln)” value is -3.08 ± 0.26 (30 °C) and -1.29 ± 0.21 (37 °C).
For the sequence UAUUAGCAAUAUUACGGGUU, the “self-splicing fitness (ln)” value was -2.08 ± 0.13 (30 °C) and -1.77 ± 0.2 (37 °C).
Take AGUUAGCAAUAUUACGAAAG: the “self-splicing fitness (ln)” value is -4.09 ± 0.21 (30 °C) and -2.82 ± 0.24 (37 °C).
As for CCCCAGCAAUAUUACGGACC, the “self-splicing fitness (ln)” value by setting is: (30 °C) -4.08 ± 0.35; (37 °C) -2.64 ± 0.26.
With GAGAAGCAAUAUUACGACCG, the “self-splicing fitness (ln)” value was -0.945 ± 0.32 (30 °C) and -0.457 ± 0.27 (37 °C).
As to ACGUAGCAAUAUUACGAUCG, the “self-splicing fitness (ln)” value was -1.15 ± 0.1 (30 °C) and -0.0917 ± 0.12 (37 °C).
For CCCGAGCAAUAUUACGAGUU, in that order: -4.2 ± 0.19 and -2.29 ± 0.17.
As to CUGAAGCAAUAUUACGACAC, the “self-splicing fitness (ln)” value (30 °C) is -2.05 ± 0.32.
Take UUUCAGCAAUAUUACGGGUA: the “self-splicing fitness (ln)” value runs as follows: (30 °C) -0.909 ± 0.1; (37 °C) -0.337 ± 0.12.
With GAAUAGCAAUAUUACGAACU, the “self-splicing fitness (ln)” value (30 °C) was -0.471 ± 0.085 and the “self-splicing fitness (ln)” value (37 °C) came to 0.508 ± 0.1.
With GCAAAGCAAUAUUACGGCUG, the “self-splicing fitness (ln)” value is -2.43 ± 0.14 (30 °C) and -1.24 ± 0.17 (37 °C).
Take UAGGAGCAAUAUUACGACUG: the “self-splicing fitness (ln)” value is, setting by setting: (30 °C) -0.384 ± 0.096; (37 °C) 0.363 ± 0.14.
Regarding ACUGAGCAAUAUUACGAAUU, the “self-splicing fitness (ln)” value is -2.97 ± 0.29 (30 °C) and -2.1 ± 0.24 (37 °C).
Consider UAAUAGCAAUAUUACGAUGC, for which the “self-splicing fitness (ln)” value (30 °C) was -3.45 ± 0.3.
Regarding AUAGAGCAAUAUUACGCAGC, the “self-splicing fitness (ln)” value (30 °C) was -2.33 ± 0.45.
For GAAAAGCAAUAUUACGCAUC, the “self-splicing fitness (ln)” value by setting is: (30 °C) -3.17 ± 0.17; (37 °C) -2.78 ± 0.18.
In the case of CCAUAGCAAUAUUACGUUUA, the “self-splicing fitness (ln)” value (30 °C) was -3.25 ± 0.23 and the “self-splicing fitness (ln)” value (37 °C) was -2.68 ± 0.25.
As for UCAGAGCAAUAUUACGUGCU, the “self-splicing fitness (ln)” value was -3.09 ± 0.2 (30 °C) and -3.07 ± 0.28 (37 °C).

The record behind these values is the supplement of paper PMC7877785.
